Patent US8029979B2, “Method for determining the substrate specificity of an enzyme” (JPT Peptide Technologies GmbH, priority 2001, dated 2011)
BA1 = not defined here

What was measured:
[1] = biological target: T1, protein kinase A (Bos taurus, UniProt P00517); test: Time-dependent incubation of various modified surfaces with protein kinase A (FIG. 3, Example 31); format: biochemical; conditions: protein kinase A 2 U/mL, incubated for the given time at 25° C.
T1 construct: purchased Sigma P26452 as printed
Method: FIG. 3. The peptide Leu-Arg-Arg-Ala-Ser-Leu-Gly-NH2, modified at the N-terminus with the dipeptide cysteinyl-β-alanine, was coupled to maleinimido-functionalised surfaces by a Michael addition (maleinimido-functionalised glass surface, Sigma, Silane-Prep™, S4651; as well as maleinimidobutyryl-β-alanine-functionalised, modified polypropylene membranes). The modified glass surfaces were first pre-incubated for 10 minutes using 20 mL of 100 μM ATP solution in 50 mM of sodium phosphate buffer pH 7.5. […] (Example 31). The phosphorylation of the corresponding peptides was detected using a FUJIFILM PhosphorImager. The signal intensity of the respective spot is given below the figures. […] FIG. 4. […] After incubation for 30 min at 25° C. the phosphorylation of the corresponding peptides was detected using a FUJIFILM PhosphorImager. […] After incubation for 30 min at 25° C. the phosphorylation of the corresponding peptides was detected using a FUJIFILM PhosphorImager. […]
After drying the glass surface the quantity of radioactive phosphate incorporated in the glass-surface-bound peptides was determined using a PhosphorImager system (FLA-3000, FUJIFILM) (see FIG. 3).

[2] = biological target: T1, protein kinase A; test: Incubation of various modified surfaces (glass, cellulose, polypropylene) with protein kinase A (FIG. 2, Example 30); format: biochemical; conditions: protein kinase A 2 U/mL, 30 minutes at 25° C.
Method: FIG. 2. The peptide Leu-Arg-Arg-Ala-Ser-Leu-Gly-NH2 and the control peptide […], each modified at the N-terminus with the dipeptide cysteinyl-β-alanine, were coupled to a maleinimido-functionalised surface by a Michael addition (Example 1; maleinimidobutyryl-β-alanine-functionalised cellulose as well as maleinimidobutyryl-β-alanine-functionalised, modified polypropylene membranes). The surfaces thus modified were first pre-incubated for 10 minutes using 10 mL of 100 μM ATP solution in 50 mM of sodium phosphate buffer pH 7.5. […] (Example 30). The phosphorylation of the corresponding peptides was detected using a FUJIFILM PhosphorImager. The signal intensity of the respective spot is given below the figures. […] In the case of the modified glass surfaces, however, the signal for the substrate amino acid sequence is a factor of 4-5 larger than the signal for the corresponding control amino acid sequence. […]
After drying the glass surface the quantity of radioactive phosphate incorporated in the glass-surface-bound peptides was determined using a PhosphorImager system (FLA-3000, FUJIFILM) (see FIG. 2).

Cys-BA1-Leu-Arg-Arg-Ala-Ser-Leu-Gly-NH2 ({Cys-BA1}-LRRASLG-NH2; reading uncertain; also: printed as Cys-BA1-Leu-Arg-Arg-Ala-Ser-Leu-Gly-NH2) [compound 85]
kinase-mediated incorporation of radioactivity into the substrate amino acid sequence ([1]; modified glass surfaces): clear time dependence | kinase-mediated phosphorylation signal on polypropylene ([1]; modified polypropylene surfaces): only non-specific binding of ATP or kinase to the peptides is measured | kinase-mediated phosphorylation signal on porous surfaces ([2]; modified cellulose or polypropylene surfaces): only non-specific binding of ATP or kinase to the peptides is measured | signal for the substrate amino acid sequence larger than the signal for the corresponding control amino acid sequence ([2]; modified glass surfaces): 4-5 factor
